Measurements from patent US20120253023A1.

Molecular target: T1, amylin receptor (rat), P32214
T1 chain 1: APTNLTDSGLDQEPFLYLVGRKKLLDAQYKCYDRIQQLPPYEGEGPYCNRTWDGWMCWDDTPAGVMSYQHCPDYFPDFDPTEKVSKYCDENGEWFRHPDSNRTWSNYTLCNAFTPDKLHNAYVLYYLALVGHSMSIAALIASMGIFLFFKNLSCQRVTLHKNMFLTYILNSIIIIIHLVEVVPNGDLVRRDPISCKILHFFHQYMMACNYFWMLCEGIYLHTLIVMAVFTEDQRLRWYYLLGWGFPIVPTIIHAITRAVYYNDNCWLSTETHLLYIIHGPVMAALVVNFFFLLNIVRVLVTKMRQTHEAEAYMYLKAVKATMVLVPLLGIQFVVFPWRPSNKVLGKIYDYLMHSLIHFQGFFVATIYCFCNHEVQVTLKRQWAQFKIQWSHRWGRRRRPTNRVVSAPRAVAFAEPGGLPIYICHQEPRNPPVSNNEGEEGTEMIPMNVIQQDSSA
T1 chain 2: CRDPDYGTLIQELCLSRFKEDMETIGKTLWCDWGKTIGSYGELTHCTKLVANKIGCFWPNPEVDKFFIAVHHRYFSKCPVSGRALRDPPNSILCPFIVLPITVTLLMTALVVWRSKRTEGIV

DFMGWMDFGKRKCNTATCATQRLANELVRLQTYPRTNVGSNTY (modifications not checked) [DF(P-CH2SO3)… …]
IC50: 0.083 nM
